Test results published in patent publication US9688764B2, “Methods of treating breast cancer by administering anti-human prolactin receptor (PRLR) antibodies” (REGENERON PHARMACEUTICALS, INC., priority 2013, dated 2017).

T1: PRLR-expressing cells (T47D) (Homo sapiens, UniProt P16471)
T1 construct: a native PRLR expressing cell line (T47D); endogenous in cells; host or cells: T47D
T1 sequence (P16471 25-622): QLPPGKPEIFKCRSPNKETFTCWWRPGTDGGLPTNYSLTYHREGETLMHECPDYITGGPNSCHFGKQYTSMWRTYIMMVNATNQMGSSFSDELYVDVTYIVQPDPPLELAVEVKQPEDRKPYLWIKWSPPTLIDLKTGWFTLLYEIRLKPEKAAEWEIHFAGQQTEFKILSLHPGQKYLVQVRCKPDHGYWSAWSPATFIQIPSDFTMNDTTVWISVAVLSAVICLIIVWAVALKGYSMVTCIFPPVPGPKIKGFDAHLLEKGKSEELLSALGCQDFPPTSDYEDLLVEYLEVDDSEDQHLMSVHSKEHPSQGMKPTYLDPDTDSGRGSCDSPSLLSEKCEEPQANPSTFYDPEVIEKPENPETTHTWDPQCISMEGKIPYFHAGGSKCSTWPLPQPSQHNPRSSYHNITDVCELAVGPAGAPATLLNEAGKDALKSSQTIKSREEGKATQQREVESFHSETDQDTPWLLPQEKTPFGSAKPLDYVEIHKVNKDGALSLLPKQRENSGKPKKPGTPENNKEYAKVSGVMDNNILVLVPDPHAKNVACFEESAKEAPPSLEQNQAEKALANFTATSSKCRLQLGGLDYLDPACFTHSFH

T2: HEK293/hPRLR (Homo sapiens, UniProt P16471)
T2 construct: HA; expressed in transfected cells; host or cells: HEK293
T2 sequence (P16471 25-622): T1 sequence (P16471 25-622)

B1: H1H6793P: anti-PRLR antibody, human IgG1 Fc; HCVR/LCVR SEQ ID NOs 146/154 (antibody, V domains shown)
VH: EVQLVESGGGLVQPGGSLRLSCAASGFSFSIYAMSWFRQAPGKGLEWVSAINGRGDGTHYADSVKGRFTISRDNSKTTLYLQMSSLRAEDTAVYYCAKPVMSTNGFDIWGQGTMVTVSS
VL: DIQMTQSPSTLSASVGDRVTITCRASQSISSWLAWYQLKPGKAPKLLIYKASNLESGVPSRFSGSGSGTEFTLTISSLQPDDFATYYCQQYNIYWTFGQGTKVEIK
modifications: human IgG1 Fc
B2: H1H6795P: anti-PRLR antibody, human IgG1 Fc; HCVR/LCVR SEQ ID NOs 162/170 (antibody, V domains shown)
VH: QVQLVQSGAEVKKPGASVKVSCKASGYTFGTSGITWVRQAPGQGLEWMGWSSAYNGKTDYAQKFQDRVTMTTDTSTTTGYMEMRSLTSDDTAVYYCTTVVRRPFDFWGQGTLVTVSS
VL: DIQMTQSPSSLSASVGDRVTITCRASQDINNFLAWFQQKPGKAPKSLIYAASSLQSGVPSKFSGGGSGTDFALTISSLQPEDFATYYCQQYSSYPITFGQGTRLEIK
modifications: human IgG1 Fc
B3: H1H6800P: anti-PRLR antibody, human IgG1 Fc; HCVR/LCVR SEQ ID NOs 194/202 (antibody, V domains shown)
VH: EVQLVESGGGLVQPGRSLRLSCAASGFTFDGYAMHWVRQGPGKGLEWVSGISWYSDTLGYADSVKGRFTISRDNAKNSLYLQMNSLRTEDTAFYYCAKISSSGWAFDYWGQGTLVTVSS
VL: EIVLTQSPGTLSLSPGERATLSCRASHSVSSAYLAWYQQKPGQTPRLLIYGTSSRATGIPDRFSGSGSGTDFTLTISRLEPEDFAVYYCQQYGSSPLFTFGPGTKVDIK
modifications: human IgG1 Fc
B4: H1H6792P: anti-PRLR antibody, human IgG1 Fc; HCVR/LCVR SEQ ID NOs 130/138 (antibody, V domains shown)
VH: EVQLVESGGGLVQPGRSLRLSCAASGFTLDDHAVHWVRQAPGKGLEWVSGISWNSVYIDYADSVKGRFTIFRDNAKNSLYLQMNSLRAEDTAFYYCARDIEGARDYWGQGTLVTVSS
VL: DIQMTQSPSSLSASVGDRVTITCRASQGIRNDLGWYQQKPGKAPKRLIYAASSLQSGVPSRFSGSGYGTEFTLTISSLQPEDFAPYYCLQHNSYPLTFGGGTKVEIK
modifications: human IgG1 Fc
B5: H1H6790P: anti-PRLR antibody, human IgG1 Fc; HCVR/LCVR SEQ ID NOs 114/122 (antibody, V domains shown)
VH: EVQLVESGGGLVQPGGSLRLSCAASGFTFSSYAMTWVRQAPGKGLEWVSAITGSVGNTYYADSVKGRFTISRDNSKNTLYLQMNSLGAEDTAEYYCAKGAGMTTNWYLDLWGRGTLVTVSS
VL: DIVMTQSPDSLAVSLGARATINCKSSQSVLYSSNNQNYLTWYQQKPGQPPKLLIKWASTRESGVPDRFSGSGSGTDFTLTISSLQAEDVAVYYCQQYASSPYTFGQGTKLEIK
modifications: human IgG1 Fc
B6: H1H6797P: anti-PRLR antibody, human IgG1 Fc; HCVR/LCVR SEQ ID NOs 178/186 (antibody, V domains shown)
VH: EVQLVESGGGLVQPGGSLRLSCIVSGFTFSGSWMSWVRQLPGKGLEWVANIKEDGSDSYYVDSVEGRFTISRDNAKSSLYLQMNSLRVDDTAVYFCARARTVPLHYWGQGTLVTVSS
VL: DIQMTQSPSTLSASVGDRVTITCRASQSINIWLAWYQQKPGKAPKLLIYRASYLESGVPSSFAGGGSGTEFTLTISSLQPDDFGTYYCQHYNSYPFTFGQGTKLEIK
modifications: human IgG1 Fc

Molecular target: T3, hPRLR.mFc (soluble dimeric human PRLR) (Homo sapiens, UniProt P16471)
T3 construct: dimeric (hPRLR.mFc)
T3 sequence (P16471 with tags, fused parts or gaps): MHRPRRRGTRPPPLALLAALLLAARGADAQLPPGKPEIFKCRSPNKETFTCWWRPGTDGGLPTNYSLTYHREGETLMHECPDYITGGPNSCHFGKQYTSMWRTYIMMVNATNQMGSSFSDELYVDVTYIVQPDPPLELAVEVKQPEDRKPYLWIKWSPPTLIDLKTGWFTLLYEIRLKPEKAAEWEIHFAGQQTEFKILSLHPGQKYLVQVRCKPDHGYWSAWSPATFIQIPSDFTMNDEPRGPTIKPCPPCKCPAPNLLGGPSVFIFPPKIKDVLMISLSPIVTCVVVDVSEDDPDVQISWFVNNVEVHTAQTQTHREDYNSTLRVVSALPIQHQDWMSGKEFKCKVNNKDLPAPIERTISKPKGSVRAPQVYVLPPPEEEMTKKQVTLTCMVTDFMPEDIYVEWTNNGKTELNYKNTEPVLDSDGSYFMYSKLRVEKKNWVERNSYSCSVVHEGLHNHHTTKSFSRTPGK
Test: Surface plasmon resonance (Biacore T200), mAb-capture format
Type: binding
Conditions: 25° C., antibody-capture format, analyte hPRLR.mFc
Summary of the method: (§1)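 Rate constants ka and kd were obtained by fitting sensorgrams to a 1:1 model. Test mAbs, as human IgG1 Fc forms, sat on an anti-human Fc surface while soluble PRLR ectodomain protein passed over it, either monomeric (human or cynomolgus .mmh) or dimeric (human mFc fusion).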

Kd	T½	Molecule
0.331 nM	153 min	B1
0.0545 nM	137 min	B2
0.184 nM	133 min	B3
0.313 nM	122 min	B4
0.192 nM	111 min	B5
0.122 nM	97 min	B6

Same assay, conditions: 37° C., antibody-capture format, analyte hPRLR.mFc

Kd	T½	Molecule
0.347 nM	81 min	B1
0.0402 nM	149 min	B2
0.229 nM	79 min	B3
0.352 nM	66 min	B4
0.306 nM	58 min	B5
0.0691 nM	93 min	B6

Molecular target: T4, hPRLR.mmh (soluble monomeric human PRLR) (Homo sapiens, UniProt P16471)
T4 construct: soluble monomeric (hPRLR.mmh); mmh (myc-myc-hexahistidine)
T4 sequence (P16471 with tags, fused parts or gaps): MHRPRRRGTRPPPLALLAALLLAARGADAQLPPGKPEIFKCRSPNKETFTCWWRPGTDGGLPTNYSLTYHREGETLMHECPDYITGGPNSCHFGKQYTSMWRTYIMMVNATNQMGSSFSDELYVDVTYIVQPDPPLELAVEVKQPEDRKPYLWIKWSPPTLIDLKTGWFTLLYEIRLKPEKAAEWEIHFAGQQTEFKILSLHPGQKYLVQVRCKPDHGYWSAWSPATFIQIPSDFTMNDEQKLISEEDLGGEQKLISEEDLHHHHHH
Test: as above
Type: binding
Conditions: 25° C., antibody-capture format, analyte hPRLR.mmh
Summary of the method: as §1

Kd	T½	Molecule
1.41 nM	35 min	B1
1.52 nM	7 min	B2
0.972 nM	28 min	B3
2.45 nM	15 min	B4
1.41 nM	14 min	B5
1.73 nM	6 min	B6

Same assay, conditions: 37° C., antibody-capture format, analyte hPRLR.mmh

Kd	T½	Molecule
3.02 nM	11 min	B1
3.81 nM	2 min	B2
1.47 nM	10 min	B3
5.27 nM	5 min	B4
3.5 nM	4 min	B5
6.37 nM	1 min	B6

Molecular target: mfPRLR.mmh (monomeric macaca fascicularis PRLR)
Sequence (as listed by the source): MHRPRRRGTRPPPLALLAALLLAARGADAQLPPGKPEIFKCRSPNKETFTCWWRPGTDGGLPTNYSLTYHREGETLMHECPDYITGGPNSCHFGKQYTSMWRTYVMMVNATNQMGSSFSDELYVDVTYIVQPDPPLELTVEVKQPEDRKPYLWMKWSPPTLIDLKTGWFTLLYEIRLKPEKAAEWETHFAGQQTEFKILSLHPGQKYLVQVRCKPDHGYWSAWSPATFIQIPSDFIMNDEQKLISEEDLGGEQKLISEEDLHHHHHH
Test: as above
Type: binding
Conditions: 25° C., antibody-capture format, analyte mfPRLR.mmh
Summary of the method: as §1

Kd	Molecule	T½
2.22 nM	B1	29 min
2.33 nM	B2	6 min
1.25 nM	B3	30 min
4.17 nM	B4	12 min
2.04 nM	B5	15 min
3.12 nM	B6	6 min

Same assay, conditions: 37° C., antibody-capture format, analyte mfPRLR.mmh

Kd	Molecule	T½
4.59 nM	B1	11 min
6.16 nM	B2	2 min
2.48 nM	B3	11 min
9.37 nM	B4	4 min
5.22 nM	B5	4 min
9.9 nM	B6	1 min

Molecular target: T1, PRLR-expressing cells (T47D)
Test: Antibody binding and internalization by PRLR-expressing cells (imaging)
Type: cell-based
Conditions: [mAb] (0.67 nM), alexa488 intensity in intracellular vesicles, 1 h at 37° C.

% Internalization relative to Control I	Molecule
179.9%	B1
150.7%	B2
198.3%	B3
155.9%	B4
146.9%	B5
145.2%	B6

Same assay, conditions: [mAb] (0.67 nM), whole cell alexa488 intensity at 37° C.

% Total Binding relative to Control I	Molecule
177.9%	B1
123.4%	B2
186.8%	B3
110.6%	B4
122.8%	B5
151.2%	B6

Test system: HEK293 (non-expressing parental cells)
Test: FACS cell surface binding
Conditions: not given
Summary of the method: (§2)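 HEK293 lines stably expressing HA-tagged human, cynomolgus or mouse PRLR, native-expressing T47D and parental HEK293 tested by flow cytometry. Cells (1×10^5) stained with primary antibody 30 min on ice, then PE anti-human secondary; MFI expressed as fold over isotype control.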

Molecule	FACS Cell Binding (Fold Above Background)
B1	2 Fold Above Background
B2	1 Fold Above Background
B3	1 Fold Above Background
B4	1 Fold Above Background
B5	1 Fold Above Background
B6	1 Fold Above Background

Molecular target: T2, HEK293/hPRLR
Test: FACS cell surface binding
Conditions: not given
Summary of the method: as §2

FACS Cell Binding (Fold Above Background)	Molecule
2 Fold Above Background	B1
1 Fold Above Background	B2
35 Fold Above Background	B3
37 Fold Above Background	B4
37 Fold Above Background	B5
1 Fold Above Background	B6

Test system: HEK293/mfPRLR
Sequence (as listed by the source): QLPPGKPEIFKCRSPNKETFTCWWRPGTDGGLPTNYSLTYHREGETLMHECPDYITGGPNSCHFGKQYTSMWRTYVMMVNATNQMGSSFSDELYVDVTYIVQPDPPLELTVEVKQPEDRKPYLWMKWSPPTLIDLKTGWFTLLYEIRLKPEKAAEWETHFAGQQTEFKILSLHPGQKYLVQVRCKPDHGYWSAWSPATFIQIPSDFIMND
Test: FACS cell surface binding
Parameters: species or system macaca fascicularis
Conditions: not given
Summary of the method: as §2

Molecule	FACS Cell Binding (Fold Above Background)
B1	32 Fold Above Background
B2	22 Fold Above Background
B3	29 Fold Above Background
B4	28 Fold Above Background
B5	24 Fold Above Background
B6	25 Fold Above Background
